How the values were obtained:
Du156.12 = assay: ELISA
gp120 (HIV-1 strain YU2) = gp120 (HIV-1 strain YU2) (UniProt P35961); assay: SPR

| EC50 (Du156.12) [µg/mL] | Substance | Kd (gp120 (HIV-1 strain YU2)) [nM] |
| --- | --- | --- |
| 0.164 | 4 (Heavy chain: V57T) | – |
| 0.066 | 5 (Heavy chain: P62K) | – |
| 0.063 | 8 (Heavy chain: I30T) | – |
| 0.063 | 10 (Heavy chain: R53N) | – |
| 0.196 | 12 (Light chain: Y30S) | – |

The remaining lines, values behind:

| Substance | EC50 (Du156.12) [µg/mL] | Kd (gp120 (HIV-1 strain YU2)) [nM] |
| --- | --- | --- |
| 1 (Heavy chain: T33Y) | 0.048 | – |
| 3 (Heavy chain: A56G) | 0.101 | – |
| 6 (Heavy chain: V73T) | 0.097 | – |
| 7 (Heavy chain: Y74S) | 0.071 | – |
| 9 (Heavy chain: K52N) | 0.056 | – |
| 11 (Heavy chain: R61Q) | 0.086 | – |
| b12 | – | 38.1 |
